Experiment [1] deals with T1, human HER3 receptor on cells (human, UniProt P21860 20-1342).
T1 construct: whole, on cells; also called ErbB3
In words: flow cytometry competition on SKBR3 cells; NRG varied, displaced molecule: antibody B at a fixed concentration. As to the method:
Cells were then washed and further incubated with a 1:60 dilution of appropriate FITC-conjugated secondary antibody (Sigma) for 45 min on ice, before cytometry analysis on a Quanta apparatus (Beckman-Coulter).
(In flow cytometry, cells or beads pass a laser one at a time.)

In experiment [2] the target is T1, human HER3 receptor on cells. In words: fluorescence of d2-labelled NRG on HER2/HER3-transfected 3T3 fibroblasts; unlabelled NRG varied, displaced molecule: d2-labelled NRG. On the procedure:
(§1) After KREBS washing, fluorescence at 620/670 nm was measured using a Pherastar microplate reader.

The target of experiment [3] is T2, HER3 Snap-tagged, on HEK cells (human, UniProt P21860 20-1342, Snap-tag labelled with Lumi4-terbium cryptate donor).
T2 construct: whole, on cells; also called HER3 Snap-tagged HEK cells; not shown: Snap-tag (CisBio Tag-Lite)
In words: Tag-Lite HTRF on HER3 Snap-tagged HEK cells, d2-labelled mAb, without NRG. As to the method:
(§2) After 16 h of incubation, the fluorescence of Lumi4-terbium and d2 was measured respectively at 620 and 665 nm (60 μs delay, 400 μs integration) upon 337 nm excitation on a Pherastar FS instrument.

Experiment [4] concerns the target T2, HER3 Snap-tagged, on HEK cells. In words: Tag-Lite HTRF on HER3 Snap-tagged HEK cells, with NRG against without NRG. On the procedure:
as §2
A general note: Time-resolved FRET reads energy transfer from a long-lived donor to a nearby acceptor.

Experiment [5] has the same target. In words: Tag-Lite HTRF on HER3 Snap-tagged HEK cells, d2-labelled mAb, co-incubated with NRG. On the procedure:
as §2

Experiment [6] shares this target. In words: Tag-Lite HTRF on HER3 Snap-tagged HEK cells; d2-labelled 9F7-F11 varied; without NRG. As to the method:
as §2

The target is the same in experiment [7]. The experiment can be described thus: Tag-Lite HTRF on HER3 Snap-tagged HEK cells; d2-labelled 9F7-F11 varied; co-incubated with NRG (legend printed 'NRG 100 mM'). On the procedure:
as §2

The target in experiment [8] is T1, human HER3 receptor on cells. The experiment can be described thus: fluorescence of d2-labelled NRG on HER2/HER3-transfected 3T3 fibroblasts; 9F7-F11 varied; half-maximal enhancement of the binding of labelled NRG to HER3. On the procedure: as §1

B1: neuregulin (NRG) (ligand, UniProt Q02297-6 177-241, looked up)
chain: SHLVKCAEKEKTFCVNGGECFMVKDLSNPSRYLCKCPNEFTGDRCQNYVMASFYKHLGIEFMEAE
modifications: also: d2 dye label as tracer, site not given here
notes: also called neuregulin 131 (as printed, probably neuregulin beta1); heregulin
B1: the “IC50 (read off the curve)” value in experiment [1] was ~2 nM; in experiment [2], ~5 nM.

B2: murine anti-human-HER3 monoclonal antibody 9F7-F11 (antibody, V domains shown)
VH: EVKLVESGGGLVQPGGSLKLSCAASGFTFSSYTMSWVRQTPEKRLEWVAYISDGGGVTYYPDTIKGRFTISRDNAKNTLYLQMSSLKSEDTAMYYCARDRYGLFAYWGQGTLVTVSA
VL: DIVMTQSQKFMSTSVGDRVSITCKASQNVGIAVAWYQQKPGQSPKLLIYSASNRYTGVPDRFTGSGSGTDFTLTISNMQSEDLADYFCQQYSNYPYTFGGGTKLEIK
notes: Murine hybridoma antibody; also called mAb 9F7-F11; anti-HER3 Ab 9F7-F11
By Kd is commonly meant a measure of binding affinity in units of concentration. The term EC50 (read off the curve) denotes the midpoint of the concentration-response curve. In the case of B2, the Kd in experiment [3] was found to be 2.33 nM; in experiment [5] it was 0.47 nM. Moreover, the “fold increase of affinity with NRG against without NRG” value in experiment [4] turned out to be 6 fold. Also, the “EC50 (read off the curve)” value in experiment [6] was ~2 nM; in experiment [7] it was ~0.5 nM; in experiment [8], ~10 nM.

Values taken from patent publication US20160319033A1 (INSERM INSTITUT NATIONAL DE LA SANTE ET DE LA RECHERCHE …, published 2016).
